Our source for the koff values is publication PMC8326117 (2021).

The assay deals with SARS-CoV-2 S-protein RBD (SARS-CoV-2, UniProt P0DTC2). The assay can be described thus: SPR.

B1: S-protein neutralizing peptide AYn1 (peptide)
peptide: KKKKKKDKFNHEAEDLFY
In turn, B1 yielded a koff of 0.001 s⁻¹.

For orientation: koff means the first-order rate constant of dissociation. A lower koff goes with a long-lived complex.
